The Kd is a measure of binding affinity in units of concentration. Higher therefore signals weaker binding.

Results on 1 molecule are retold here after PMC13311836, “Clinically observed RASA1 missense mutants exhibit diverse RasGAP protein behaviors in vitro” (The Journal of Biological Chemistry, 2026).

Experiment [1] has as its target T1, RasGAP SH2-SH3-SH2 construct (residues 174 to 444), R194C (human, UniProt P20936 174-444, R194C | C236S | C261S | C372S | C402S).
T1 sequence: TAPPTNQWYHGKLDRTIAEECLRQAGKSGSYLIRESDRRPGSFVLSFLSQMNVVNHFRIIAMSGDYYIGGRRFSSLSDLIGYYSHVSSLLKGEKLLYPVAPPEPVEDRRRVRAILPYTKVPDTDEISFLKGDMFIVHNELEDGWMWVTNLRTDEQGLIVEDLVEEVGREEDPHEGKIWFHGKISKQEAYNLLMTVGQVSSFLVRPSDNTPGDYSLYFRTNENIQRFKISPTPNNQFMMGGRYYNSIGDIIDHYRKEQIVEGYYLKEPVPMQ
Put plainly: ITC; replicate, Figure S7 panel C. For orientation: ITC needs no label: the signal is the heat of the interaction.

Experiment [2] concerns the target T1, RasGAP SH2-SH3-SH2 construct (residues …). The experiment can be described thus: ITC; replicate, Figure S7 panel E.
For experiment [3], the target named is T2, RasGAP SH2-SH3-SH2 construct (residues 174 to 444), R194C (human, UniProt P20936 174-444, R194C | C236S | C261S | C372S | C402S).
T2 construct: human RasGAP (p120RasGAP, RASA1), UniProt P20936, residues 174-444, with C236S, C261S, C372S, C402S and the cancer-associated N-SH2 mutation R194C; also called p120RasGAP SH2-SH3-SH2 R194C; source: E. coli Rosetta (DE3), purified (Ni-NTA, TEV cleavage, anion exchange, SEC); not shown: His6, N-terminal, cleaved
T2 sequence (looked up): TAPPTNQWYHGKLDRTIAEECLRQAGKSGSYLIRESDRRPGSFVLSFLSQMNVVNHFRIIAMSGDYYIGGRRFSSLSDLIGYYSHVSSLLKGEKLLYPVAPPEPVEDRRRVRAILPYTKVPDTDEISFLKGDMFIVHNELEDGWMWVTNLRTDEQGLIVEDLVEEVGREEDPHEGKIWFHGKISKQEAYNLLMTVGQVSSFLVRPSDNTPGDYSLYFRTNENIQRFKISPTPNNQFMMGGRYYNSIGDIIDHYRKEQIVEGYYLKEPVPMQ
Put plainly: ITC; about 25 μM peptide in the syringe titrated into about 5 μM RasGAP SH2-SH3-SH2 in the cell; 25 °C; 250 mM NaCl, 20 mM Tris pH 8, 1 mM TCEP; Independent model. The settings on record: both partners purified.

In experiment [4] the target is T3, RasGAP SH2-SH3-SH2 construct (residues 174 to 444), WT (human, UniProt P20936 174-444, C236S | C261S | C372S | C402S).
T3 construct: also called p120RasGAP SH2-SH3-SH2; RASA1; source: E. coli Rosetta (DE3), purified (Ni-NTA, TEV cleavage, anion exchange, SEC); not shown: His6, N-terminal, cleaved
T3 sequence (looked up): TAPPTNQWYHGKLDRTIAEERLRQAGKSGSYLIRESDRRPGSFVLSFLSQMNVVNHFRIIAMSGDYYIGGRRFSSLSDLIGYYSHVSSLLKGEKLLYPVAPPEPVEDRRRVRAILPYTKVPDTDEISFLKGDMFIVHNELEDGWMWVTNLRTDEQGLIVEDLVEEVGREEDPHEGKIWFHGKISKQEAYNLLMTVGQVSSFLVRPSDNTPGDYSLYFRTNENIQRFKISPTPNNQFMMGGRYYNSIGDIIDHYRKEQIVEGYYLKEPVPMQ
Described as above. As to conditions: both partners purified.

Experiment [5] has as its target T4, RasGAP SH2-SH3-SH2 construct (residues 174 to 444), R427Q (human, UniProt P20936 174-444, C236S | C261S | C372S | C402S | R427Q).
T4 construct: human RasGAP (p120RasGAP, RASA1), UniProt P20936, residues 174-444, with C236S, C261S, C372S, C402S and the cancer-associated C-SH2 mutation R427Q; also called p120RasGAP SH2-SH3-SH2 R427Q; source: E. coli Rosetta (DE3), purified (Ni-NTA, TEV cleavage, anion exchange, SEC); not shown: His6, N-terminal, cleaved
T4 sequence (looked up): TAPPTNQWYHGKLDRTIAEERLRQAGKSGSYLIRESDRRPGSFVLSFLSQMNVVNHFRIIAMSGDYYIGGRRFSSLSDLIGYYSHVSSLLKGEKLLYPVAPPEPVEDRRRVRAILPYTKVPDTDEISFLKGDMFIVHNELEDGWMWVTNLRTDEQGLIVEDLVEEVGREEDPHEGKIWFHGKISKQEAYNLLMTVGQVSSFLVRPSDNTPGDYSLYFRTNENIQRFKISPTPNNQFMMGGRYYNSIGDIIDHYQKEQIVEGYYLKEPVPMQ
The experiment is described as above. As to conditions: both partners purified.

For experiment [6], the target named is T5, RasGAP SH2-SH3-SH2 construct (residues 174 to 444), WT (human, UniProt P20936 174-444, C236S | C261S | C372S | C402S).
T5 sequence: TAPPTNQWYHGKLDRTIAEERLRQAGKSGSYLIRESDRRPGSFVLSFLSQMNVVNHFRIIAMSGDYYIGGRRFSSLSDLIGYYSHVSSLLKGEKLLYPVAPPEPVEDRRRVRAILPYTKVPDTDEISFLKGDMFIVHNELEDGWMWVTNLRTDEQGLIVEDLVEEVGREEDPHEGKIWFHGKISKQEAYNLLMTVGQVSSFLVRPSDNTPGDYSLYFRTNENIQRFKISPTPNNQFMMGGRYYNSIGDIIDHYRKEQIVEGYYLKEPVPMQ
The experiment can be described thus: ITC; replicate, Figure S7 panel B.

For experiment [7], the target named is T5, RasGAP SH2-SH3-SH2 construct (residues …). Put plainly: ITC; replicate, Figure S7 panel A.
Experiment [8] has as its target T6, RasGAP SH2-SH3-SH2 construct (residues 174 to 444), R427Q (human, UniProt P20936 174-444, C236S | C261S | C372S | C402S | R427Q).
T6 sequence: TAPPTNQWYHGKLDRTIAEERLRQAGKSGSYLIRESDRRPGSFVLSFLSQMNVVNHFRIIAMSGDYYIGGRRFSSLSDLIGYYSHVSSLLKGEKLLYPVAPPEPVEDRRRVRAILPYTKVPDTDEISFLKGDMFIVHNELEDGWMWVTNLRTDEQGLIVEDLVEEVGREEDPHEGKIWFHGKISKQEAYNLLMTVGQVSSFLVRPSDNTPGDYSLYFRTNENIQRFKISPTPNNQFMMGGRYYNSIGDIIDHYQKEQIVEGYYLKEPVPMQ
Put plainly: ITC; replicate, Figure S7 panel F.

For experiment [9], the target named is T1, RasGAP SH2-SH3-SH2 construct (residues …). Put plainly: ITC; replicate, Figure S7 panel D.
Experiment [10] deals with T6, RasGAP SH2-SH3-SH2 construct (residues …). Put plainly: ITC; replicate, Figure S7 panel G.
Experiment [11] has as its target T1, RasGAP SH2-SH3-SH2 construct (residues …). Put plainly: ITC; average.
The target of experiment [12] is T5, RasGAP SH2-SH3-SH2 construct (residues …). Put plainly: ITC; average.
The target in experiment [13] is T6, RasGAP SH2-SH3-SH2 construct (residues …). Put plainly: ITC; average.

[ ]: non-standard residue; d: D form. pY = N[C@@H](Cc1ccc(OP(=O)(O)O)cc1)C(=O)O

B1: p190RhoGAP phosphopeptide, residues 1083 to 1111 (pY1087, pY1105) (peptide)
peptide: Ac-DPSD[pY]AEPMDAVVKPRNEEENI[pY]SVPHDS-NH2
notes: p190RhoGAP (ARHGAP35), UniProt Q9NRY4, residues 1083-1111, 29 amino acids; also called p190RhoGAP peptide; ARHGAP35 peptide; source: synthetic peptide, bought: GenScript
On to B1, for which the Kd in [1] is 3.65 nM; in experiment [2], 1.2 nM; in experiment [6], 3.59 nM; in experiment [7] it was 6.49 nM; in experiment [8] it was 8.14 nM; in experiment [9] it was 7.23 nM. In addition, the Kd in experiment [10] was 2.08 nM; in experiment [11] it was 4.03 nM; in [12] it was 5.04 nM; in [13], 5.11 nM. Besides, the binding result in [3], in [4] and in experiment [5] was “binds” each time.
